In this assay the target is T1, human CD22 (human, UniProt P20273 20-847).
T1 construct: whole, on cells; Always presented on living CD22+ tumor cells (Raji for all numbers); also called CD22 antigen; target antigen
T1 sequence (looked up): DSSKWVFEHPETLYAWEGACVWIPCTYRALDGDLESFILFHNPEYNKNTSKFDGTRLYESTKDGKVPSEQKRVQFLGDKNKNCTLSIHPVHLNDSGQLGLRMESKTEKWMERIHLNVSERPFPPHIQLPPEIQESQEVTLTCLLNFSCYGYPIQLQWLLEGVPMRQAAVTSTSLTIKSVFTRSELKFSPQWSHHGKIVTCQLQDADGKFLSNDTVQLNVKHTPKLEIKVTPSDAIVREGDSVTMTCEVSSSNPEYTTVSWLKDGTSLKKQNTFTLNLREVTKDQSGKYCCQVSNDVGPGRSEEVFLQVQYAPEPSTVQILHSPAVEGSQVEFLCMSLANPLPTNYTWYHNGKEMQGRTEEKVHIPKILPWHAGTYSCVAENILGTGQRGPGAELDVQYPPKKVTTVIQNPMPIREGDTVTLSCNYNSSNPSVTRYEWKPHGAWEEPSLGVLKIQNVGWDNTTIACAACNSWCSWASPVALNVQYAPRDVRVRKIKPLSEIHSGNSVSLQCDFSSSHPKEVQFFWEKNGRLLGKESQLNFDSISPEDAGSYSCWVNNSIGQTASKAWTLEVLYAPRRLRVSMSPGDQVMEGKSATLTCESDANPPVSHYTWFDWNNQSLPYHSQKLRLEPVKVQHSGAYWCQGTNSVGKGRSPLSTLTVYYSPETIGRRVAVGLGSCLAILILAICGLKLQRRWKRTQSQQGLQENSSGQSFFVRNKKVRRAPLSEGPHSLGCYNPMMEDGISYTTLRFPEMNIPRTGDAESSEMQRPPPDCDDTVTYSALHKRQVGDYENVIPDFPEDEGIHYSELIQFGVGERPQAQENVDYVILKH
The assay can be described thus: flow cytometry on CD22+ Raji cells, equilibrium binding, non-linear regression. The method, then:
Specific binding of the constructs was determined by flow cytometry using the human CD22⁺ B cell lines Raji, Ramos, Daudi and CA46. Human T cell lines Jurkat and HUT102 were used as negative controls. Cells (5×10⁵) were incubated with 100 μl of a sample containing either the scFv fragments, or control antibodies, in FACS buffer (PBS, 0.1% NaN₃, 2% FBS) for 45 min at 4° C. in round bottom 96-well microtiter plates. Cells were pelleted at 200 g at 4° C. for 5 min and washed twice with 200 μl FACS buffer. […] Background fluorescence was determined by using cells incubated with 9E10 antibody and FITC-labeled anti-mouse antibody under the same conditions. Stained cells were analyzed on a FACScan Flow Cytometer (BD Bioscience, San Jose, Calif.), and median fluorescence intensity (MFI) was calculated using the CellQuest™ software (BD Bioscience).
Affinity measurements were performed as previously described (Benedict et al., J Immunol Methods 201:223-231, 1997) with the following modifications: Varying concentrations of antibodies were incubated in triplicate with 5×10⁵ Raji cells at room temperature in FACS buffer for two hours. Bound antibodies were detected under the same conditions, as described above. After two final washing steps, cells were fixed in PBS containing 2% paraformaldehyde for 15 minutes at room temperature and analyzed by flow cytometry. […]

B1: murine monoclonal antibody RFB4 (antibody, V domains shown)
VH: EVQLVESGGGLVKPGGSLKLSCAASGFAFSIYDMSWVRQTPEKRLEWVAYISSGGGTTYYPDTVKGRFTISRDNAKNTLYLQMSSLKSEDTAMYYCARHSGYGSSYGVLFAYWGQGTLVTVSA
VL: DIQMTQTTSSLSASLGDRVTISCRASQDISNYLNWYQQKPDGTVKLLIYYTSILHSGVPSRFSGSGSGTDYSLTISNLEQEDFATYFCQQGNTLPWTFGGGTKLEIK
notes: also called mAb RFB4; murine mAb RFB4
B1 returned a Kd of 2 nM.

Source of the values: US20060194276A1 (GOVERMMENT OF THE USA AS REPRESENTED BY THE SECRETARY OF …, published 2006).
